Results on 18 substances are retold here after paper PMC8131363 (Scientific Reports, 2021).

The test has as its target domestic cat Calcium Sensing Receptor (cCaSR) (Felis catus).

Starred links: 1 amine or outer side, 2 acyl side, 3 side chain; linkers in the order of their positions; H or OH if unused. Non-standard residues stand in square brackets, D forms with d. No end group written: not given here. γGlu = O=C(O)[C@H](CCC(=O)[*:2])N[*:1]; βAsp = O=C(O)[C@H](CC(=O)[*:2])N[*:1]; Abu = CC[C@H](N)C(=O)O

For the substance [βAsp]-Phe, the EC50 of agonist activity, luminescence (natClytin) in HEK T-Rex/natClytin cells inducibly expressing cCaSR, calcium-free buffer; activity grade + is > 10 mM.
The same measure, in the same setting: then [γGlu]-Ala, with > 10 mM.
Same read-out and setting: then [γGlu]-Cys, with > 10 mM; and [γGlu]-Gln, with > 10 mM.
Turning to [γGlu]-Glu, the EC50 of agonist activity, luminescence (natClytin) in HEK T-Rex/natClytin cells inducibly expressing cCaSR, calcium-free buffer; activity grade ++ was found to be 2.07 mM.
Consider [γGlu]-Glu-Gln, for which the EC50 of agonist activity, luminescence (natClytin) in HEK T-Rex/natClytin cells inducibly expressing cCaSR, calcium-free buffer; activity grade + is > 10 mM.
Regarding [γGlu]-Glu-Glu, the EC50 of agonist activity, luminescence (natClytin) in HEK T-Rex/natClytin cells inducibly expressing cCaSR, calcium-free buffer; activity grade ++ came to 2.35 mM.
On to [γGlu]-Gly, for which the EC50 of agonist activity, luminescence (natClytin) in HEK T-Rex/natClytin cells inducibly expressing cCaSR, calcium-free buffer; activity grade + is > 10 mM.
On the same count and under the same terms, then [γGlu]-Leu, with > 10 mM; and [γGlu]-Met, with > 10 mM; and [γGlu]-Trp, with > 10 mM.
In the case of [γGlu]-Tyr, the EC50 of agonist activity, luminescence (natClytin) in HEK T-Rex/natClytin cells inducibly expressing cCaSR, calcium-free buffer; activity grade ++ was 3.88 mM.
For the substance [γGlu]-Val, the EC50 of agonist activity, luminescence (natClytin) in HEK T-Rex/natClytin cells inducibly expressing cCaSR, calcium-free buffer; activity grade ++ was 4.52 mM.
On the same count and under the same terms, then [γGlu]-Val-Gly, with 4.22 mM; and [γGlu]-[Abu]-Gly, with 2.65 mM.
In the case of γ-D-Glu-Trp (peptide), the EC50 of agonist activity, luminescence (natClytin) in HEK T-Rex/natClytin cells inducibly expressing cCaSR, calcium-free buffer; activity grade ++ amounted to 4.2 mM.
Take γ-Glu-Abu (peptide): the EC50 of agonist activity, luminescence (natClytin) in HEK T-Rex/natClytin cells inducibly expressing cCaSR, calcium-free buffer; activity grade + is > 10 mM.
Turning to γ-Glu-Phe (peptide), the EC50 of agonist activity, luminescence (natClytin) in HEK T-Rex/natClytin cells inducibly expressing cCaSR, calcium-free buffer; activity grade ++ is 2.32 mM.
